Experimental data: paper PMC11772321

Target: T1, His-OsNAC2 (Oryza sativa, UniProt Q7XUV6 1-343)
T1 sequence: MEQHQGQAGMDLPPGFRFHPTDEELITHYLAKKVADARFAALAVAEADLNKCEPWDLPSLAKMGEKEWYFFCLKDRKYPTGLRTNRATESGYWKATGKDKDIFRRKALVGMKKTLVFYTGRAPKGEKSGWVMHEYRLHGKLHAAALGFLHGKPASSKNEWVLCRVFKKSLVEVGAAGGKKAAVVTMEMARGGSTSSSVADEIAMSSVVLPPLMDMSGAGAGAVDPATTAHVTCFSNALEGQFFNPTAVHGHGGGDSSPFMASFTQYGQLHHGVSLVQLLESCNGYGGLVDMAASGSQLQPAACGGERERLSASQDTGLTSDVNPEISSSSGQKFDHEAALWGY
Assay: EMSA

B1: probe-OsNAC2-59 (MITE in OsSCE1a promoter) (dsDNA)
DNA 1: TCCTTTGAGTCTATCTCTCTCATCCAATTCTTGTGTTTTTCCTGTGGTTCAATCAAACG
DNA 2: CGTTTGATTGAACCACAGGAAAAACACAAGAATTGGATGAGAGAGATAGACTCAAAGGA
**Q.** Does B1 bind?
**A.** Result: binds
